Test results: the domain aggregation screens of Martell et al. (2025)

Assay: soluble fraction after stress (log2 fold change); higher = more stays soluble; pooled small domains, quantitative proteomics
Settings: stress: 50 degC
Outline: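 After stress at 50°C, the amount of each protein still soluble was measured. This was done on pooled custom libraries of small protein domains, using high-throughput quantitative proteomics. The figure given is a base-two log fold change and stands for aggregation propensity, with higher values meaning more protein stays in solution.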

Sequence | soluble fraction (log2)
HMKVIAEESYRILVDAIEKLPPQMKSIMQLALEGKSNPEIAETLNISGETVHSQKKIAYRKLRVYLKD | -1.17
HMKVIETKYNTYVVKSGDTLYSVAKKYGISVTELKEINDLSNNTLSIGQKLLVPATTIIIDE | -0.117
HMKVNMIIVMKPGARETDIQEVSNVLKSAGLGVHISKGTERTIIGVIGDKRLLNGIPLDLMHGVDKLVPIM | 0.0193
HMKVNQFEVEGNQRYSTEEIAKASGVSKGDNLFLVNKTETARKLLDELAYVRSVNIKRKLPDTLVITVAE | 0.399
HMKVPDVQYMNKDSAIEALTANELKYTIVEAENENVAAGVVISQSVERDSQVAPGTSVELVVSTG | 0.0357
HMKVQEMTANSFLTQWEAGNVKTLDILPEGIIKGELNDGTKFQLYYSSAAGLIDDVKKNPEKFANTTVSEK | 0.129
HMKVQEVDYGTFLTMVDEGKVNQVDIENSKQITFNTKGDKNKVYITGQVNDPELVNRLYKAGVEFSQEIP | 0.0729
HMKVSNWYFNGAPSATTPPTSQWTTEKDKKAHIGDTFTSLDKSPSPNAGKSWRYTPSYTWEEIV | 0.344
HMKVSRTAVKLHHANAVEVAKKLQPLFVVGDVQIEPVKDAGIILLKGPASTLADLRESIVQMDHTA | -0.0461
HMKVTRWEDTGMKPAEAQEWQHYDFKPQEAMNWRDAGFVPLVARTWSDKGFDASEAQAWRDSVRNS | -0.19
HMKVVEKHIVPQIQNPIRLQEYASSIFKTITTRSGIKKAIKKQLILLNRKPANTGDWIKEGQLLELLAEE | -0.242
HMKVYIKDISDLSDKLKSLLIENDIDDSNKLFEVEDQVLLEIKGLGSKTIDKIKDIVTEYLKKNN | -0.218
HMKVYPIMEAIANNNIELVKLLLEYHADLNIKDSNGNTPLALAKETGAKEVEDLLLQWMKQHT | -0.543
HMKWGDTPTVEVPNLIGMKKKDLQTQLVDLKLDISGDGEKVIKQSPEAGAKVKEGSKIRIYFG | -0.0661
HMKWYDSDKGFGFLSQEEGEDVYVRSSALPAGVEGLKAGQRVEFGIASGRRGPQALSL | -0.0714
HMKYKKYKLLKDLPTFKAGQLAYISKTGNLIAGTPENQKTTETGLIIMIYHETTLKKFPNILTEWFEEIE | -2.71
HMKYNGDRPVFNDDVAWAKWMLENPAKITSHDKENLSSMLKKPEVVMLFEAEDLSVPDLRTLAKE | 0.236
HMKYNYEAQQSDELSLVKGSRIHVLEKSSDGWWKGEIDNVVGWFPS | -0.205
HMKYRLLGENLQTIRKARGMKQQELADQIGINMQSLSKIERGLNYPTFETLEKIMNALGITPNELLSG | -0.461

Sequence | soluble fraction (log2)
HMKYRPGDVVTLRVARMGEMGAFLDAGTGNTNDDILLHKMQQTEEIKAGQDVKVYLYLDPNRRLTASMKL | -0.108
HMKYSNDEVERDLYVRGVIYQIGDLVENKLDGTSGEVVRRGPNYVQYTDGENFYKAFLSALQEQK | -0.354
HMKYSYAELTKLQEQIAQDRNAPLTVPNALGIGLDERNNVIEITVNIADEAAAKAYYLQKYGDRISLKTTD | 0.117
HMKYTEEIFNILSRGGFISANSVSSTVKRYYDALEEDFTEYYDYYKGIGFYLEAGNGYYLFTR | -3.29
HMKYTVKSPLPGVIMSVLVKVGDTVKASDTVISLEAMKMENAIHAGRDGKVTSIDVNVGDSVLEGHTLVTI | -0.386
HMLAAGTPLTVVTESSNLNIRQEPSTEAAVVGKAAKGEIVTLVEQTSGEWWKVSTKDGEEGYAYSRYL | 0.341
HMLAAGTSLTVDTESSNLNIRQEPSTEGVILGKAAKGEVVTLVEQSSDEWWKIKTKDGEEGYAYARYLR | 0.203
HMLADRANMAPAALRQIMTAIDGGNVTPKQIESATGMAHATVARALRKMLDDGLIANDGKGRYTVLT | -0.0609
HMLADTNIHTIALKHRLANEVVEQVRPFLPETATIRAYDNMLILKSDRATLANVEQLIKKLDT | 0.0983
HMLALVREQIERNVSNPTDEDIRKIRHDVMEVITRAGADAATVDIAIEIDSQKNILRAIATGATEL | -0.0114
HMLAMHVVESVGGAEQFTKLQNFAKTQNADYQKMWNDTMNSGNVLAIKTMLSGIQSDMIAVQ | -0.16
HMLAQDVIVKQDGGTILSKVLEIGTQEIAYKKWNSQDGPVYKIAKDQVLSVNYQNGEVDRFA | 0.00732
HMLAQISDEGAIGAVVARVLDAHPNEVARYHAGEEKVAKFLMGAAMRELRGKGDPAVVQRLLSEGLDARRV | 0.119
HMLARPTANELVKEMQRRAKEQRTELPPDAARDLLERSGQDQFLLGNEVDKLAALSGYTTITREMVAQAGT | 0.186
HMLAVPADFAEKLQSLRSQLASDDLDASDAFGRLQPFIKALYPAQLEALRKAVDDFDFVEATRLIDQLPQ | -0.232
HMLAYQRTYEKILEDLRNDVYPVNSLLPPEPKLEEIYHVSRTTVRRAIAQLADEGYVKVKQGYGTVVLKN | -0.339
HMLDEPPVSQTLTTYDREHMALYLRLLDSARDGADWREAVQILFGLDPTRDPLRSRHVHDTHLARARWM | -0.131
HMLDFGQEDSEAVSEIILVLGRYWMDFSHKKYPEAEGSALRHKGISHIFTVLKPYLTSATAQLIEQRLQQ | 0.00235
HMLDIQKKGENIAYIEGAGDVIPESLKQIGYHVVTIAPKDINAETLSRFDAVVVGIRAYNTVEDL | -0.244
